# According to the supplement of paper PMC9112550, “Optimization of the antimicrobial peptide Bac7 by deep mutational scanning” (BMC Biology, 2022):
# System: Escherichia coli TOP10
# Test: shrunken log2 fold change of peptide-encoding DNA abundance (4.5 h post-induction vs induction); higher = less antimicrobial activity (less host growth inhibition)
# Conditions: time post-induction: 4.5 h; library: site-saturation at positions 5, 18, 19, 20
# 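Further: peptides expressed intracellularly from a pBAD plasmid library in pooled LB shake-flask culture, induced with 0.3% L-arabinose, DNA abundance read by NGS, three biological replicates, DESeq2 with apeglm shrinkage.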
row,Sequence,shrunken log2 fold change
1,RRIRTRPPRLPRPRPRPGAAPRP,0.509
2,RRIRYRPPRLPRPRPRPNWCPRP,0.01
3,RRIRGRPPRLPRPRPRPKMVPRP,0.79
4,RRIRARPPRLPRPRPRPRDGPRP,1.3
5,RRIRWRPPRLPRPRPRPKQDPRP,0.00878
6,RRIRQRPPRLPRPRPRPEPIPRP,0.047
7,RRIRKRPPRLPRPRPRPTDAPRP,0.05
8,RRIRSRPPRLPRPRPRPLCEPRP,0.0616
9,RRIRPRPPRLPRPRPRPHIRPRP,-0.0938
10,RRIRQRPPRLPRPRPRPYTNPRP,-0.149
11,RRIRVRPPRLPRPRPRPICPPRP,-0.0804
12,RRIRMRPPRLPRPRPRPNKAPRP,-0.05
13,RRIRNRPPRLPRPRPRPRATPRP,0.659
14,RRIRERPPRLPRPRPRPFYIPRP,-0.5
15,RRIRKRPPRLPRPRPRPIFMPRP,0.0293
16,RRIRKRPPRLPRPRPRPGLIPRP,0.13
17,RRIRTRPPRLPRPRPRPMGWPRP,0.293
18,RRIRVRPPRLPRPRPRPINQPRP,-0.749
19,RRIRDRPPRLPRPRPRPVLNPRP,-0.165
20,RRIRQRPPRLPRPRPRPVEPPRP,0.117
21,RRIRDRPPRLPRPRPRPPYHPRP,-0.302
22,RRIRQRPPRLPRPRPRPMIRPRP,-0.0156
23,RRIRARPPRLPRPRPRPCCFPRP,0.274
24,RRIRLRPPRLPRPRPRPYALPRP,-0.141
25,RRIRVRPPRLPRPRPRPAHCPRP,0.122

row,Sequence,shrunken log2 fold change
1,RRIRPRPPRLPRPRPRPPYDPRP,-0.173
2,RRIRTRPPRLPRPRPRPAPIPRP,0.0613
3,RRIRWRPPRLPRPRPRPDFCPRP,0.247
4,RRIRLRPPRLPRPRPRPGAFPRP,-0.0131
5,RRIRNRPPRLPRPRPRPNKLPRP,-0.36
6,RRIRGRPPRLPRPRPRPTYYPRP,0.0798
7,RRIRMRPPRLPRPRPRPNTCPRP,-0.145
8,RRIRIRPPRLPRPRPRPPRGPRP,0.534
9,RRIRPRPPRLPRPRPRPGTMPRP,-0.133
10,RRIRKRPPRLPRPRPRPTVIPRP,-0.15
11,RRIRMRPPRLPRPRPRPNIVPRP,0.0335
12,RRIRSRPPRLPRPRPRPPWCPRP,0.309
13,RRIRWRPPRLPRPRPRPPTNPRP,0.433
14,RRIRRRPPRLPRPRPRPGSPPRP,0.107
15,RRIRPRPPRLPRPRPRPRNRPRP,0.516
16,RRIRIRPPRLPRPRPRPNAEPRP,-0.151
17,RRIRERPPRLPRPRPRPPCNPRP,-0.392
18,RRIRSRPPRLPRPRPRPWEDPRP,-0.0124
19,RRIRFRPPRLPRPRPRPPVYPRP,-0.124
20,RRIRTRPPRLPRPRPRPKNLPRP,-0.143
21,RRIRRRPPRLPRPRPRPMGWPRP,0.637
22,RRIRPRPPRLPRPRPRPEAYPRP,0.00183
23,RRIRIRPPRLPRPRPRPTEIPRP,-0.305
24,RRIRGRPPRLPRPRPRPVHKPRP,0.518
25,RRIRHRPPRLPRPRPRPIACPRP,0.0428

row,Sequence,shrunken log2 fold change
1,RRIRTRPPRLPRPRPRPRNHPRP,-0.345
2,RRIRTRPPRLPRPRPRPDCKPRP,-0.126
3,RRIRSRPPRLPRPRPRPYNPPRP,-0.953
4,RRIRDRPPRLPRPRPRPIENPRP,-0.144
5,RRIRDRPPRLPRPRPRPVQAPRP,0.0233
6,RRIRARPPRLPRPRPRPTWAPRP,0.621
7,RRIRYRPPRLPRPRPRPCKLPRP,-0.698
8,RRIRLRPPRLPRPRPRPVGVPRP,-0.0387
9,RRIRGRPPRLPRPRPRPIIIPRP,-0.167
10,RRIRQRPPRLPRPRPRPYWIPRP,-0.152
11,RRIRPRPPRLPRPRPRPMNFPRP,-0.165
12,RRIRQRPPRLPRPRPRPRFAPRP,0.141
13,RRIRHRPPRLPRPRPRPAQEPRP,0.381
14,RRIRQRPPRLPRPRPRPFWQPRP,0.213
15,RRIRNRPPRLPRPRPRPTWCPRP,-0.0306
16,RRIRSRPPRLPRPRPRPSHTPRP,-0.572
17,RRIRDRPPRLPRPRPRPGQVPRP,0.203
18,RRIRNRPPRLPRPRPRPDNLPRP,-1.04
19,RRIRKRPPRLPRPRPRPKVRPRP,0.131
20,RRIRLRPPRLPRPRPRPYDSPRP,0.00122
21,RRIRKRPPRLPRPRPRPEPRPRP,0.991
22,RRIRYRPPRLPRPRPRPHALPRP,-0.656
23,RRIRERPPRLPRPRPRPGHQPRP,-0.236
24,RRIRYRPPRLPRPRPRPGSSPRP,-0.853
25,RRIRRRPPRLPRPRPRPIALPRP,0.0331

row,Sequence,shrunken log2 fold change
1,RRIRDRPPRLPRPRPRPNNSPRP,-0.422
2,RRIRIRPPRLPRPRPRPRINPRP,-0.482
3,RRIRKRPPRLPRPRPRPGDTPRP,0.0879
4,RRIRRRPPRLPRPRPRPCYDPRP,-0.194
5,RRIRKRPPRLPRPRPRPQPLPRP,0.405
6,RRIRERPPRLPRPRPRPQIFPRP,-0.0392
7,RRIRNRPPRLPRPRPRPAWRPRP,0.526
8,RRIRVRPPRLPRPRPRPAIMPRP,0.191
9,RRIRSRPPRLPRPRPRPFRPPRP,-0.249
10,RRIRSRPPRLPRPRPRPYDEPRP,0.0261
11,RRIRVRPPRLPRPRPRPEDMPRP,-0.115
12,RRIRVRPPRLPRPRPRPCTYPRP,-0.0569
13,RRIRPRPPRLPRPRPRPYQNPRP,-0.339
14,RRIRARPPRLPRPRPRPEETPRP,-0.03
15,RRIRFRPPRLPRPRPRPSPHPRP,0.0339
16,RRIRYRPPRLPRPRPRPVQGPRP,-0.0822
17,RRIRARPPRLPRPRPRPHIVPRP,-0.000968
18,RRIRNRPPRLPRPRPRPQNKPRP,-0.666
19,RRIRLRPPRLPRPRPRPNWPPRP,0.379
20,RRIRMRPPRLPRPRPRPDRFPRP,0.207
21,RRIRMRPPRLPRPRPRPMMHPRP,-0.0538
22,RRIRWRPPRLPRPRPRPCPHPRP,-0.00679
23,RRIRYRPPRLPRPRPRPGNVPRP,0.0571
24,RRIRLRPPRLPRPRPRPYMVPRP,-0.288
25,RRIRYRPPRLPRPRPRPCCGPRP,-0.33

row,Sequence,shrunken log2 fold change
1,RRIRSRPPRLPRPRPRPAQYPRP,0.0401
2,RRIRDRPPRLPRPRPRPVWDPRP,0.107
3,RRIRTRPPRLPRPRPRPIRVPRP,-0.519
4,RRIRTRPPRLPRPRPRPAPPPRP,0.525
5,RRIRTRPPRLPRPRPRPYMNPRP,-0.895
6,RRIRDRPPRLPRPRPRPEELPRP,0.00153
7,RRIRPRPPRLPRPRPRPPHHPRP,0.188
8,RRIRNRPPRLPRPRPRPHNDPRP,-0.395
9,RRIRVRPPRLPRPRPRPMWQPRP,-0.0393
10,RRIRFRPPRLPRPRPRPFMSPRP,-0.0532
11,RRIRMRPPRLPRPRPRPQRHPRP,0.348
12,RRIRHRPPRLPRPRPRPYTHPRP,-1.46
13,RRIRERPPRLPRPRPRPRKDPRP,-0.245
14,RRIRMRPPRLPRPRPRPPNMPRP,0.268
15,RRIRMRPPRLPRPRPRPSHWPRP,0.0911
16,RRIRFRPPRLPRPRPRPFYNPRP,-0.468
17,RRIRVRPPRLPRPRPRPVEYPRP,-1.63
18,RRIRWRPPRLPRPRPRPPWPPRP,0.503
19,RRIRFRPPRLPRPRPRPHPHPRP,-0.168
20,RRIRMRPPRLPRPRPRPAAVPRP,1.44
21,RRIRLRPPRLPRPRPRPECPPRP,0.0712
22,RRIRLRPPRLPRPRPRPTRFPRP,0.42
23,RRIRFRPPRLPRPRPRPRHRPRP,0.195
24,RRIRKRPPRLPRPRPRPKISPRP,-0.0246
25,RRIRGRPPRLPRPRPRPAEGPRP,0.335

row,Sequence,shrunken log2 fold change
1,RRIRLRPPRLPRPRPRPAHIPRP,0.0196
2,RRIRHRPPRLPRPRPRPERKPRP,0.0547
3,RRIRSRPPRLPRPRPRPFKSPRP,0.0547
4,RRIRSRPPRLPRPRPRPVWFPRP,-0.121
5,RRIRRRPPRLPRPRPRPPGHPRP,0.507
6,RRIRERPPRLPRPRPRPHQIPRP,-0.372
7,RRIRKRPPRLPRPRPRPAPPPRP,1.04
8,RRIRYRPPRLPRPRPRPQRTPRP,-0.335
9,RRIRIRPPRLPRPRPRPACFPRP,0.199
10,RRIRKRPPRLPRPRPRPYGAPRP,0.00792
11,RRIRHRPPRLPRPRPRPMMHPRP,0.117
12,RRIRKRPPRLPRPRPRPHCQPRP,0.101
13,RRIRCRPPRLPRPRPRPLQCPRP,-0.279
14,RRIRTRPPRLPRPRPRPCCCPRP,0.276
15,RRIRPRPPRLPRPRPRPECMPRP,0.212
16,RRIRERPPRLPRPRPRPMEGPRP,0.00131
17,RRIRGRPPRLPRPRPRPSDCPRP,0.105
18,RRIRIRPPRLPRPRPRPKYPPRP,-0.121
19,RRIRERPPRLPRPRPRPWCFPRP,-0.161
20,RRIRRRPPRLPRPRPRPYEHPRP,-0.0324
21,RRIRSRPPRLPRPRPRPSVAPRP,0.575
22,RRIRLRPPRLPRPRPRPTSNPRP,-0.576
23,RRIRTRPPRLPRPRPRPKRDPRP,0.187
24,RRIRNRPPRLPRPRPRPWLDPRP,-0.029
25,RRIRERPPRLPRPRPRPIMEPRP,-0.465
